Test results reported in US20070134249A1 (GENITOPE, published 2007).
Values belong to the binder of their own block, whether it stands above or below them.

Experiments:
[1] = target: T1, 591; test: ELISA
T1 construct: H3-23 K4-1; also called PIN591
Excerpt: (§1) Before specificity screening, all of the clonal immunogen-positive hybridoma supernatants were re-screened on the immunogen, a non-family member Id protein, and KLH, if animals were immunized with Id protein that has been conjugated KLH. As described above, this screen identifies HC-specific clones but not mAbs against the light chain constant region. Clones identified positive to the immunogen and KLH were […]. Those found positive to the immunogen but not to the non-family member Id protein or KLH were tittered on the immunogen. In addition to normalizing for different binding affinities and concentrations, each hybridoma supernatant was titered on the fully human form of the Id protein used as the immunogen(s) for the V regions. The titer or dilution resulting in an ELISA absorbance of 2.5 to 3 OD after 30 min. incubation time was then used. Hybridoma specificity was determined by screening against available Id proteins expressing the same HV and KV or LV as well as different HV, KV and LV. The final ELISA results are expressed as follows: 0 (<0.5 OD), 1 (0.5-1.0 OD), or 4 (1-4 OD). Positive hybridoma supernatants are categorized according to specificity: anti-Id, anti-constant region (HC, KC or LC), or V region (HV, KV, LV family or family member).
(§2) In general, the fully human Id protein or proteins containing the immunogen V regions were coated onto 96-well ELISA plates at 2.5-5 ug/mL in carbonate buffer pH 9.6 and incubated at 4° C. for up to 14 days. On the day of the ELISA, plates were brought to RT and blocked with Tris-Tween-20, pH 7.6 for 15-60 min. at RT. Following a NaCl and Triton X-100 wash, diluted hybridoma cell culture supernatants were incubated overnight at 4° C. Hybridoma supernatant dilutions ranged from 1:2 to 1:25 and were prepared in PBS with 5% BSA. Plates were washed and incubated with HRP-conjugated goat anti-mouse IgG-specific detecting antibody. A chromogenic substrate (TMB) was used to measure the amount of mouse antibody bound to each well. The reaction was stopped at or before 30 minutes with IN H2SO4 and plates were read immediately. Absorbency readings at 450 nm ranging between 0-4 OD and using Molecular Devices plate reader and SOFTMAX PRO software.

[2] = target: T2, 850; test: ELISA
T2 construct: H3-23 K2-30; also called PIN850
Excerpt: as §1, §2

[3] = target: T3, 352; test: ELISA
T3 construct: H3-23 K1-39; also called PIN352
Excerpt: as §1, §2

[4] = target: T4, 571; test: ELISA
T4 construct: H3-23 K3-11; also called PIN571
Excerpt: as §1, §2

[5] = target: T5, 551; test: ELISA
T5 construct: H3-23 L1-40; also called PIN551
Excerpt: as §1, §2

[6] = target: T6, 778; test: ELISA
T6 construct: H3-23 K3-11; also called PIN778
Excerpt: as §1, §2

[7] = target: T7, 128; test: ELISA
T7 construct: H3-23 K1-27; also called PIN128
Excerpt: as §1, §2

[8] = target: T8, 617; test: ELISA
T8 construct: H3-23, VL 1-44, LC printed K; also called PIN617
Excerpt: as §1, §2

[9] = target: T9, 547; test: ELISA
T9 construct: also called PIN547
Excerpt: as §1, §2

[10] = target: T10, 210; test: ELISA
T10 construct: H3-23 K3-11; also called PIN210
Excerpt: as §1, §2

[11] = target: T11, 540; test: ELISA
T11 construct: H3-23 K3-20; also called PIN540
Excerpt: as §1, §2

[12] = target: T12, 232; test: ELISA
T12 construct: H3-23 K1-6; also called PIN232
Excerpt: as §1, §2

[13] = target: T13, 576; test: ELISA
T13 construct: H3-23 L1-51; also called PIN576
Excerpt: as §1, §2

[14] = target: T14, 522; test: ELISA
T14 construct: H3-23 L1-40; also called PIN522
Excerpt: as §1, §2

[15] = target: T15, 834; test: ELISA
T15 construct: H3-23 K1-5; also called PIN834
Excerpt: as §1, §2

[16] = target: T16, 203; test: ELISA
T16 construct: H3-23 L1-47; also called PIN203
Excerpt: as §1, §2

[17] = target: T17, 213; test: ELISA
T17 construct: H3-23 L1-51; also called PIN213
Excerpt: as §1, §2

[18] = target: T18, PIN149 fully human Id protein (HV3-23 / KV4-1) (human); test: ELISA
T18 construct: Recombinant patient-derived idiotype immunoglobulin used as antigen; also called PIN149 Id protein; Immunogen (for 3C9, 6C9, 10H7, 15E1); not shown: human immunoglobulin heavy chain constant region, isotype G3 (HCG3); human immunoglobulin kappa light chain constant region (KC)
Excerpt: as §1, §2

[19] = target: T18, PIN149 fully human Id protein (HV3-23 / …); test: SPR (BIACORE 2000); mAb captured on anti-mouse surface, fully human Id protein as analyte, 25 C
Method: (§3) Binding constants were also determined for three of the sequenced clones (3C9, 10H7, and 20H5), as well as for two additional clones (6C9 and 15E1). The association and disassociation rates were measured by surface plasmon resonance using a BIACORE 2000 machine.
(§4) In addition, based on ELISA results, PIN185 was used as a positive control Id protein for 10H7 and 15E1 and a negative control Id protein for 3C9 and 6C9 and PIN149 was used as a non-binding Id protein for 20H5. Each mAb was captured onto an anti-mouse surface and tested for binding to the fully human Id protein. Following the mAb capture phase of the assay for the (@2 ug/ml), the fully human Id proteins were all diluted to a starting concentration of 250 nM and tested in a three fold dilution series. Each concentration was tested in duplicate. The running buffer contained PBS plus 0.005% tween-20 and 0.1 mg/ml BSA as a carrier. Binding data were collected at 25° C. […] The other data sets all fit well to a single site interaction model.

[20] = target: T19, 626; test: ELISA
T19 construct: H5-51 K4-1; also called PIN626
Excerpt: as §1, §2

[21] = target: T20, 112; test: ELISA
T20 construct: H4-39 K4-1; also called PIN112
Excerpt: as §1, §2

[22] = target: T21, 199; test: ELISA
T21 construct: H3-7 K4-1; also called PIN199
Excerpt: as §1, §2

[23] = target: T22, 529; test: ELISA
T22 construct: H3-48 K4-1; also called PIN529
Excerpt: as §1, §2

[24] = target: T23, 659; test: ELISA
T23 construct: H3-21 K4-1; also called PIN659
Excerpt: as §1, §2

[25] = target: T24, 628; test: ELISA
T24 construct: fully human Id protein; also called PIN628
Excerpt: as §1, §2

[26] = target: T25, 763; test: ELISA
T25 construct: H4-59 K4-1; also called PIN763
Excerpt: as §1, §2

[27] = target: T26, 791; test: ELISA
T26 construct: H3-30 K4-1; also called PIN791
Excerpt: as §1, §2

[28] = target: T27, 844; test: ELISA
T27 construct: H3-7 K4-1; also called PIN844
Excerpt: as §1, §2

[29] = target: T28, 170; test: ELISA
T28 construct: H4-34 K4-1; also called PIN170
Excerpt: as §1, §2

[30] = target: T29, 179; test: ELISA
T29 construct: H3-11 K4-1; also called PIN179
Excerpt: as §1, §2

[31] = target: T30, 192; test: ELISA
T30 construct: H5-51 K4-1; also called PIN192
Excerpt: as §1, §2

[32] = target: T31, 204; test: ELISA
T31 construct: H3-15 K4-1; also called PIN204
Excerpt: as §1, §2

[33] = target: T32, 792; test: ELISA
T32 construct: H1-3 K4-1; also called PIN792
Excerpt: as §1, §2

[34] = target: T33, 839; test: ELISA
T33 construct: H3-23 K4-1; also called PIN839
Excerpt: as §1, §2

[35] = target: T34, 898; test: ELISA
T34 construct: H3-15 K4-1; also called PIN898
Excerpt: as §1, §2

[36] = target: T35, 950; test: ELISA
T35 construct: H4-59 K4-1; also called PIN950
Excerpt: as §1, §2

[37] = target: T36, 952; test: ELISA
T36 construct: H3-66 K4-1; also called PIN952
Excerpt: as §1, §2

[38] = target: T37, 987; test: ELISA
T37 construct: H3-23 K4-1; also called PIN987
Excerpt: as §1, §2

[39] = target: T38, 1014; test: ELISA
T38 construct: H3-53 K4-1; also called PIN1014
Excerpt: as §1, §2

[40] = target: T39, 1023; test: ELISA
T39 construct: H4-4 K4-1; also called PIN1023
Excerpt: as §1, §2

[41] = target: T40, 1088; test: ELISA
T40 construct: H2-5 K4-1; also called PIN1088
Excerpt: as §1, §2

[42] = target: T41, 1145; test: ELISA
T41 construct: H3-11 K4-1; also called PIN1145
Excerpt: as §1, §2

[43] = target: T42, 1154; test: ELISA
T42 construct: H4-61 K4-1; also called PIN1154
Excerpt: as §1, §2

[44] = target: T43, 913; test: ELISA
T43 construct: fully human Id protein; also called PIN913
Excerpt: as §1, §2

[45] = target: T44, PIN185 fully human Id protein (human); test: ELISA
T44 construct: Patient-derived idiotype immunoglobulin used as control antigen in SPR
Excerpt: as §1, §2

[46] = target: T44, PIN185 fully human Id protein; test: SPR (BIACORE 2000); mAb captured on anti-mouse surface, fully human Id protein as analyte, 25 C
Method: as §3, §4

T18 sequence (VH, as listed by the source, chain 1 of 2): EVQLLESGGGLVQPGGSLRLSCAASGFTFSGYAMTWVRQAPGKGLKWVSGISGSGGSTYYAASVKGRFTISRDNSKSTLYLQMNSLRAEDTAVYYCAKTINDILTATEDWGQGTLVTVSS
T18 sequence (VL, as listed by the source, chain 2 of 2): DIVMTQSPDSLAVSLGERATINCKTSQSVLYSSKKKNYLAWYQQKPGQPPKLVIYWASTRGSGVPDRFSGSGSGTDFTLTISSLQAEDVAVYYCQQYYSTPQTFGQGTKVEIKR
T43 sequence (heavy, as listed by the source): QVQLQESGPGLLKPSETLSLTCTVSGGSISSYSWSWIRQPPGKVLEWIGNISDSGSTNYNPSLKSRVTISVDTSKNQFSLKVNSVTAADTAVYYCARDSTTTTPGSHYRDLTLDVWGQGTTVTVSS
T24 sequence (VH, as listed by the source, chain 1 of 2): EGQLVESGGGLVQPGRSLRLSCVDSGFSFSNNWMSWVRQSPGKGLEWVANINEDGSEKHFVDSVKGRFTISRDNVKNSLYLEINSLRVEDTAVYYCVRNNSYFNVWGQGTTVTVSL
T24 sequence (VL, as listed by the source, chain 2 of 2): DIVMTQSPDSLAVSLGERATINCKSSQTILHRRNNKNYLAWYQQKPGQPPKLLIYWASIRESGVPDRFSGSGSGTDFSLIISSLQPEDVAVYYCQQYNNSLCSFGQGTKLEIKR

grade [1]: 4
grade [2]: 4
grade [3]: 4
grade [4]: 4
grade [5]: 4
grade [6]: 4
grade [7]: 4
grade [8]: 4
grade [9]: 4
grade [10]: 4
grade [11]: 4
grade [12]: 4
grade [13]: 4
grade [14]: 4
grade [15]: 4
grade [16]: 4
grade [17]: 1
grade [18]: 4
Kd [19]: 1.78 nM
koff [19]: 0.000134 s⁻¹
kon [19]: 74900 M⁻¹ s⁻¹
B1: mAb clone 3C9 (antibody, V domains shown)
VH: EVQLQQSGPELEKPGASVKISCKASGYSFTAYNMNWVKQNNGKSLEWIGNIDPYHGGTNYNQKFKGKATLTVDKSSSTAYMQLKSLTSEDYAVYYCARGGGDWSWFAYWGQGTLVTVSA
VL: DIVMTQSHKFMSTSVGDRVSITCKASQDVNTAVAWYQQKPGQSPKVLIYWASNRHTGVPDRFTGSGSGTDYTLTISSMQAEDLALYYCHQHYSTPWTFGGGTKLEIER
notes: Mouse hybridoma mAb, fusions 13/14 (immunogen PIN149 chimera-KLH); also called anti-IGHV3-23 monoclonal 3C9

grade [1]: 4
grade [20]: 4
grade [21]: 4
grade [22]: 4
grade [23]: 4
grade [24]: 4
grade [25]: 4
grade [26]: 4
grade [27]: 4
grade [28]: 4
grade [29]: 4
grade [30]: 4
grade [31]: 4
grade [32]: 4
grade [33]: 4
grade [34]: 4
grade [35]: 4
grade [36]: 4
grade [37]: 4
grade [38]: 4
grade [39]: 4
grade [40]: 4
grade [41]: 4
grade [42]: 4
grade [43]: 4
grade [44]: 4
grade [18]: 4
grade [45]: 4
Kd [19]: 0.83 nM
koff [19]: 3.8e-05 s⁻¹
kon [19]: 45400 M⁻¹ s⁻¹
Kd [46]: 3 nM
koff [46]: 9.9e-05 s⁻¹
kon [46]: 33200 M⁻¹ s⁻¹
B2: mAb clone 10H7 (antibody, V domains shown)
VH: EVQLVESGGGLVKPGGSLKLSCTASGFTFSSYAMSWVRQSPEKRLEWVAEISSGGIHTYYSDTVTGRFSISRDNAKNSTLYLEMNSLRSEDTAIYYCARETTGTWGQGTLVTVSA
VL: QIVLTQSPAIMSASPGEKVTMTCSVSSSITYMHWFRQKPGTSPKLWIYTTSNLASGVPARFSGSGSGTSYSLTISRMEAEDAATYYCQQRSRYPFTFGSGTKLEIKR
notes: Mouse hybridoma mAb, fusions 13/14 (immunogen PIN149 chimera-KLH)
